From PMC5886718 come the findings set out here.

Test [1] addresses Glycine oxidase from Pseudoalteromonas luteoviolacea CPMOR-2 (PlGoxA) (Pseudoalteromonas luteoviolacea CPMOR-2). Put plainly: SEC.
Test [2] has the same target. Put plainly: crystal structure.

“Glycine oxidase from Pseudoalteromonas luteoviolacea CPMOR-2 (PlGoxA) (enzyme)”: the stoichiometry N in test [1] and in test [2] was 4 throughout.
